Consider 20 sequences from the supplement of paper PMC9170038.

The data set relates to MS2 coat protein. The experiment in a line: apparent KD of MS2 coat protein; designed switch direction (-1 OFF switch, 1 ON switch): 1; higher = weaker reporter binding. Put shortly: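 An oligonucleotide input, 200 uM small-molecule ligand, or no input was present during titration of SNAP-549-labelled MS2 coat protein, which was doubled from 0.7 or 1.5 nM to 3 µM. Designed RNA switches had been transcribed on Illumina chips by stalled E. coli RNA polymerase. Apparent KD per design is the median over clusters of curves fitted to normalised cluster fluorescence.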

Where [1] appears, read: input ligand: microRNA oligo, concentration not stated.
[2] abbreviates: Eterna round: R95, input ligand: microRNA oligo, concentration not stated.

As for “GCUCGAUGAGCGAUUUACAUGAGGAUCACCCAUGUACGUGGGCAGGAUAUUUACGUGCUUUGUGUAGAGAAGGGCCCAUCGAGC [SameState NG3 #72] (Eterna round: R96, puzzle: Same State NG 3)”, the “apparent KD of MS2 coat protein” value by setting is: (input ligand: FMN 200 uM) 107 nM; under setting [1], 309 nM; (input ligand: none) 546 nM.

In the case of “GCUCGAUGAGCGUUUUACAUGAGGAUCACCCAUGUUCGUGGGCAGGAUAUUUACGUGCGGAGUGUAGAGAAGGGCCCAUCGAGC [SameState NG3 #68] (Eterna round: R96, puzzle: Same State NG 3)”, the “apparent KD of MS2 coat protein” value runs as follows: (input ligand: FMN 200 uM) 71.3 nM; under setting [1], 391 nM; (input ligand: none) 674 nM.

As for “GCUCGAUGAGCUGUCUACAUGAGGAUCACCCAUGUAGAUGGGCAGGAUAUUUACGUGCUUUAUGUAGAGAAGGGCCCAUCGAGC [SameState NG3 #78] (Eterna round: R96, puzzle: Same State NG 3)”, the “apparent KD of MS2 coat protein” value is 15.5 nM (input ligand: FMN 200 uM), 123 nM under setting [1] and 169 nM (input ligand: none).

With “GCUCGAUGAUAGGCCUACAUGAGGAUCACCCAUGUAAGUGGGCAGGAUAUCUACAUGCAGAAUGUAGAGAAGGGCCCGUCGAGC [SameState NG3 #55] (Eterna round: R96, puzzle: Same State NG 3)”, the “apparent KD of MS2 coat protein” value runs as follows: (input ligand: FMN 200 uM) 20.5 nM; under setting [1], 66 nM; (input ligand: none) 83.9 nM.

Consider “GCUCGGAUGAUGACCCACAUGAGGAUCACCCAUGUGCGUGGGCAGGAUAUCUAGAUUAAGGAUGUAGAGAAGGGUCUACCGAGC [SameState NG3 #31] (Eterna round: R96, puzzle: Same State NG 3)”, for which the “apparent KD of MS2 coat protein” value by setting is: (input ligand: FMN 200 uM) 964 nM; under setting [1], 318 nM; (input ligand: none) 407 nM.

As to “GCUCGGAUGAUGGCCCACAUGAGGAUCACCCAUGUGCGUGGGCAGGAUAUCUAGAUUAAGGAUGUAGAGAAGGGUCUACCGAGC [SameState NG3 #32] (Eterna round: R96, puzzle: Same State NG 3)”, the “apparent KD of MS2 coat protein” value turned out to be 194 nM (input ligand: FMN 200 uM), 67.9 nM under setting [1] and 128 nM (input ligand: none).

Regarding “GCUGGAAACCACAUGAGGAUCACCCAUGUUCCGGAAACGGCGCAGGAUAUCUGUCCGAAAAGGUCAGAGAAGGGUGGAACCAGC [Fiskers NG3ss - 81] (Eterna round: R96, puzzle: Same State NG 3)”, the “apparent KD of MS2 coat protein” value by setting is: (input ligand: FMN 200 uM) 232 nM; under setting [1], 136 nM; (input ligand: none) 164 nM.

In the case of “GCUUCACAUGAGGAUCACCCAUGUUUUCGGAGUCGAGGAUAUGGUCACUGUAAACAGUGGCCAGAAGGCGAGGAGC [SS1 - Son of Teenbexe v8] (puzzle: Same State 1)”, the “apparent KD of MS2 coat protein” value under setting [2] amounted to 17 nM.

“GGAAACUUGAGAGGAUAUGUAGAGGAUCACCCUACAGAAGGCUCUUUUGAGAGGAUAUGUAGAGGAUCACCCUACAGAAGGCUC [pwkr ssNG DX.14] (Eterna round: R96, puzzle: Same State NG 1)”: the “apparent KD of MS2 coat protein” value was found to be 30.7 nM (input ligand: FMN 200 uM), 26.5 nM under setting [1] and 87 nM (input ligand: none).

As to “GGAAUAUGAUGUUACAUGAGGAUCACCCAUGUAGUAAUAACUAAGGAUAUUUGAAAGGGAGGAGAAGAGAAGGUAGGAUCAUAA [AK SSNG3-V2-11] (Eterna round: R96, puzzle: Same State NG 3)”, the “apparent KD of MS2 coat protein” value came to 61 nM (input ligand: FMN 200 uM), 41.3 nM under setting [1] and 63.8 nM (input ligand: none).

Take “GGAAUAUGAUGUUACAUGAGGAUCACCCAUGUAGUGACAACUAAGGAUAUCUGAAAGGAAGGAGAGGAGAAGGUAGGAUCAUAA [AK SSNG3-V2-14] (Eterna round: R96, puzzle: Same State NG 3)”: the “apparent KD of MS2 coat protein” value was 20 nM (input ligand: FMN 200 uM), 24.6 nM under setting [1] and 33.3 nM (input ligand: none).

Take “GGAAUAUUUACAGGAUAUGAGUUGUAAAGUCGAUCAGAAGGGUAGGUGUUUUGCACGGUGUGUUACAUGAGGAUCACCCAUGUU [SameState NG1 #22] (Eterna round: R96, puzzle: Same State NG 1)”: the “apparent KD of MS2 coat protein” value was found to be 74.1 nM (input ligand: FMN 200 uM), 66.2 nM under setting [1] and 123 nM (input ligand: none).

For the sequence “GGACGUCAUCUCAAUGAUUAAACAUGAGGAUCACCCAUGUCACAGGAUAUGGAUCCUAAUUGGAUCCAGAAGGGUGUGACGUCC [Fiskers NG3ss - 44] (Eterna round: R96, puzzle: Same State NG 3)”, the “apparent KD of MS2 coat protein” value is, setting by setting: (input ligand: FMN 200 uM) 121 nM; under setting [1], 98.2 nM; (input ligand: none) 148 nM.

As for “GGACGUCGAUAAUAUAAUCUCACAUGAGGAUCACCCAUGUCACAGGAUAUGGAUCCUAAUUGGAUCCAGAAGGGUGCGACGUCC [Fiskers NG3ss - 35] (Eterna round: R96, puzzle: Same State NG 3)”, the “apparent KD of MS2 coat protein” value by setting is: (input ligand: FMN 200 uM) 73.3 nM; under setting [1], 235 nM; (input ligand: none) 373 nM.

On to “GGAGCCAAGGCAGGAUAUUCAUAUUAAAACAUGAGGAUCACCCAUGUAAAGGCCAGAAGGCCUUGGGAGAAGGGCCAUGGCUCG [Xeonanis - 13 mod1] (Eterna round: R96, puzzle: Same State NG 2)”, for which the “apparent KD of MS2 coat protein” value worked out at 19.9 nM (input ligand: FMN 200 uM), 37.6 nM under setting [1] and 49 nM (input ligand: none).

For the sequence “GGAGCCAAGGCAGGAUAUUCAUUAUAAAUUACAUGAGGAUCACCCAUGUUGGCCAGAAGGCCAUGGGAGAAGGGCCAUGGCUCG [Xeonanis - 13 mod25] (Eterna round: R96, puzzle: Same State NG 2)”, the “apparent KD of MS2 coat protein” value by setting is: (input ligand: FMN 200 uM) 39.7 nM; under setting [1], 280 nM; (input ligand: none) 322 nM.

For the sequence “GGAGCCGGCACCGAGGAUAUUCAUAUUAAAACAUGAGGAUCACCCAUGUAGGCCAGAAGGCCUUGGGAGAAGGCGGAUCGGCUCG [Xeonanis] (Eterna round: R96, puzzle: Same State 2)”, the “apparent KD of MS2 coat protein” value by setting is: (input ligand: FMN 200 uM) 33.2 nM; under setting [1], 305 nM; (input ligand: none) 544 nM.

For “GGAGCCGGCACCGAGGAUAUUCAUAUUAAAACAUGAGGAUCACCCAUGUAGGUCAAAAGACCUUGGGAGAAGGCGGAUCGGCUCG [Xeonanis - 31] (puzzle: Same State 2)”, the “apparent KD of MS2 coat protein” value (Eterna round: R95, input ligand: FMN 200 uM) amounted to 32.1 nM; the “apparent KD of MS2 coat protein” value under setting [2] came to 802 nM; the “apparent KD of MS2 coat protein” value (Eterna round: R95, input ligand: none) was 481 nM.

Regarding “GGAGCCGGCCUAGGAUAUUUCAUAAAAUUACAUGAGGAUCACCCAUGUAGGCCAGAAGGCCUUGGGAAGAAGGAGGUCGGCUCC [Loop Effect - U28,U29] (Eterna round: R96, puzzle: Same State NG 2)”, the “apparent KD of MS2 coat protein” value is 12.9 nM (input ligand: FMN 200 uM), 17.5 nM under setting [1] and 28.2 nM (input ligand: none).

As for “GGAGCCGGUACUGAGGAUAUUCAUAUUAAAACAUGAGGAUCACCCAUGUAGGCCAGAAGGCCUUGGGAGAAGGCAGAUCGGCUCC [Biceusra] (Eterna round: R96, puzzle: Same State 2)”, the “apparent KD of MS2 coat protein” value came out at 19 nM (input ligand: FMN 200 uM), 132 nM under setting [1] and 233 nM (input ligand: none).
